Measured values taken from paper PMC8789049, “Regulation of AR mRNA translation in response to acute AR pathway inhibition”.

T1: YTHDF3 (UniProt Q7Z739 1-585)
T1 sequence: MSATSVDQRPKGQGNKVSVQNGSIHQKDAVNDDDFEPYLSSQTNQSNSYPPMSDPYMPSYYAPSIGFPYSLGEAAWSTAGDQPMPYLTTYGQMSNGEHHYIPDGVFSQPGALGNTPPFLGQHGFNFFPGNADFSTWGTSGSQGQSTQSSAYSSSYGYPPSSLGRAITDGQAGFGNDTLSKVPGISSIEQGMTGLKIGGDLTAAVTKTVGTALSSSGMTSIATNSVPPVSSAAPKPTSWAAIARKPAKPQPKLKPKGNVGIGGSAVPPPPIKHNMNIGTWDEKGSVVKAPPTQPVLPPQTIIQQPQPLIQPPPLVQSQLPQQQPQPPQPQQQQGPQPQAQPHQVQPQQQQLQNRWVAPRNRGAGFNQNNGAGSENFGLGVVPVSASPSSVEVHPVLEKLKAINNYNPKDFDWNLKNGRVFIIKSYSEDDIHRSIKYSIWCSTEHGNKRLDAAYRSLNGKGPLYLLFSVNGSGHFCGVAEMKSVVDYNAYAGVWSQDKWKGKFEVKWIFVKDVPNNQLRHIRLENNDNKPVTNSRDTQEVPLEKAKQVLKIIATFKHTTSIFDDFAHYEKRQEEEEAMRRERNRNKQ


Key:
[1] = molecular target: G3BP1 (UniProt Q13283 1-466); assay: EMSA; REMSA: 6.25 nM biotin probe, 100 mM HEPES pH 7.3, 200 mM KCl, 10 mM MgCl2, 10 mM DTT, 5% glycerol, 2 ug tRNA, 20 ul, 30 min, temperature not stated; 6% native PAGE in 0.5x TBE; details: protein: recombinant; tags: His-tag (pET-28a(+)-TEV); chain copies: 2; label: biotin
G3BP1, sequence (Q13283 whole entry): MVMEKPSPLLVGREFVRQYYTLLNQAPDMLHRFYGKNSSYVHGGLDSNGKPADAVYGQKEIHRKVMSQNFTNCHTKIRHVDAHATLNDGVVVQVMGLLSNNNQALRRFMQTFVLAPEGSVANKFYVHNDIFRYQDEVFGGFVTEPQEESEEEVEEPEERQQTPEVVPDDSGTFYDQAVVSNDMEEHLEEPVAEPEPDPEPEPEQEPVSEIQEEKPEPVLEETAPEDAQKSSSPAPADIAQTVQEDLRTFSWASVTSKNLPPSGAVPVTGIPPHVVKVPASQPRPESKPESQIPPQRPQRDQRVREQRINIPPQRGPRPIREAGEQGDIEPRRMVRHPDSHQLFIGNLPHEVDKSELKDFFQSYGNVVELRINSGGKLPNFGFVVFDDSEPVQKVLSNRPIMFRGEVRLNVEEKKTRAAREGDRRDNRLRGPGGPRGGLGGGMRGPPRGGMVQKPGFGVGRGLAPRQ

[2] = molecular target: T1, YTHDF3; assay: as above; details: protein: recombinant; tags: His-tag (pET-28a(+)-TEV); label: biotin

| Binder | binding result [1] | binding result [2] |
| --- | --- | --- |
| CCUGUGAGGGACUGGCCACUCAGACCCACU (ssRNA) [6908-UM] | binds | no binding |
| CCUGUGAGGGACUGGCCACUCAGACCCACU (ssRNA, m6A in GGm6ACU) [6908-m6A] |  | binds |
| AACUCAAUGGAACUGACUGAGAUUUACCAC (ssRNA) [8953-UM] | binds | no binding |
| GGAUAUUUUGAAGGACUGUCAUAUAUCUUU (ssRNA, m6A in GGm6ACU) [7301-m6A] |  | binds |
| GGAUAUUUUGAAGGACUGUCAUAUAUCUUU (ssRNA) [7301-UM] | binds | no binding |
| AACUCAAUGGAACUGACUGAGAUUUACCAC (ssRNA, m6A in GAm6ACU) [8953-m6A] |  | binds |
